# According to publication PMC3717276, “Optimization and validation of mitochondria-based functional assay as a useful tool to identify BH3-like molecules selectively targeting anti-apoptotic Bcl-2 proteins” (BMC Biotechnology, 2013):
# How the values were obtained:
# [1] = target: Human Bcl-2 protein (isoform 2 construct), N-terminal 6xHis tagged recombinant protein (human); assay: SPR; competitive solution binding: protein (20 nM) pre-incubated with tested BH3 peptide for at least 30 min, injected over immobilised biotin-Bim BH3 peptide; response at 30 s of dissociation
# [2] = target: Human Bcl-2 protein (isoform 2 construct), N-terminal 6xHis tagged recombinant protein (human); assay: fluorescence polarisation; competition: Mcl-1 (20 nM) or Bcl-2 (40 nM) pre-incubated with FAM-Bid (2 nM and 2.5 nM), tested BH3 peptide added, 2-3 h; 100 mM potassium phosphate, pH 7.5, 100 ug/ml bovine gamma globulin, 0.02% sodium azide; Ki calculated from IC50
# [3] = target: Human Bcl-2 protein (isoform 2 construct), N-terminal 6xHis tagged recombinant protein (human); assay: fluorescence polarisation; saturation experiments with FAM-Bid and Mcl-1 or Bcl-2 protein; assay buffer 100 mM potassium phosphate, pH 7.5, 100 ug/ml bovine gamma globulin, 0.02% sodium azide
Substance,IC50 [1] [nM],Ki [2] [nM],Kd [3] [nM]
Bid BH3 peptide (residues 79-99),51.2,11.2,
21-residue Bid BH3 peptide labeled at the N-terminus with 6-carboxyfluorescein succinimidyl ester (FAM-Bid),,,6.3
